From CN116178545A (GUANGDONG FEIPENG PHARMACEUTICAL CO LTD, dated 2023)

T1: 重组人ICOSLG蛋白 (human, UniProt O75144 19-258)
T1 construct: The words 携带hFc标签的 stand before the first protein of the list; also called Acrobiosystem Cat.B72-H5254
T1 sequence (looked up): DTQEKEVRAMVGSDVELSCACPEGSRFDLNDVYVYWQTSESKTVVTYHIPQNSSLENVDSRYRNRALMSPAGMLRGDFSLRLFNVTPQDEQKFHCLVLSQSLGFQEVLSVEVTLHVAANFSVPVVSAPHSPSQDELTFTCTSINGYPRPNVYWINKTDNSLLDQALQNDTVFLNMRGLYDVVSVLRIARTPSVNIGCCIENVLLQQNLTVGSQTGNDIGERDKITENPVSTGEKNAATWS

T2: 重组人CD276蛋白 (human, UniProt Q5ZPR3-2 29-245)
T2 construct: The words 携带hFc标签的 stand before the first protein of the list; also called B7-H3; Acrobiosystem Cat.B73-H5253
T2 sequence (looked up): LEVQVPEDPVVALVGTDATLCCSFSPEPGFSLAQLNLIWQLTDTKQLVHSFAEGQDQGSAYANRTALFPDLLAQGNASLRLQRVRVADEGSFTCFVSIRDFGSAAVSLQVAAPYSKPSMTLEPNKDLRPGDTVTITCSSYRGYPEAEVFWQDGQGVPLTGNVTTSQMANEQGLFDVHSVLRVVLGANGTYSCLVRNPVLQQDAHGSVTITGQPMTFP

T3: 重组人CD86蛋白 (human, UniProt P42081 26-247)
T3 construct: The words 携带hFc标签的 stand before the first protein of the list; also called Acrobiosystem Cat.CD6-H5257
T3 sequence (looked up): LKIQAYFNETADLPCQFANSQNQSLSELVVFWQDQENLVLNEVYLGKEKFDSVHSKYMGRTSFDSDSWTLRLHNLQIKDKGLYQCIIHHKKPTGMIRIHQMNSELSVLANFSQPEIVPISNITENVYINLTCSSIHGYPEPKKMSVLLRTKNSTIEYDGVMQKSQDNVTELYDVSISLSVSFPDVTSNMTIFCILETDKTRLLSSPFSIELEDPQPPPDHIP

T4: 重组人PD-L2蛋白 (human, UniProt Q9BQ51 20-219)
T4 construct: The words 携带hFc标签的 stand before the first protein of the list; also called Acrobiosystem Cat.PD2-H5251
T4 sequence (looked up): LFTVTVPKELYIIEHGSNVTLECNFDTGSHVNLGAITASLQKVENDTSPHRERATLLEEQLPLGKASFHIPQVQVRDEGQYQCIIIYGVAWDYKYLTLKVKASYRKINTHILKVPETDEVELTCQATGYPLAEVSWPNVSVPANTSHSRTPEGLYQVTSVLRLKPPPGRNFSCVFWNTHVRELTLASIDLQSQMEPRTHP

T5: 重组人ICOS蛋白 (human, UniProt Q9Y6W8 21-140)
T5 construct: The words 携带hFc标签的 stand before the first protein of the list; also called Acrobiosystem Cat.ICS-H5250
T5 sequence (looked up): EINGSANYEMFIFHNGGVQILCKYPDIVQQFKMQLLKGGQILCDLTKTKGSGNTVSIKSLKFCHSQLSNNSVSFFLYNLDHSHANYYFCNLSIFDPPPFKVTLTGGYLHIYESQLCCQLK


Experiments:
[1] = target: T6, 重组人CTLA-4蛋白 (human, UniProt P16410 37-162); assay: ELISA, protein coated at 1μg/ml
T6 construct: The words 携带hFc标签的 stand before the first protein of the list; also called Acrobiosystem Cat.CT4-H5255

[2] = target: T7, 重组人PD-1蛋白(自产) (human, UniProt Q15116 25-167); assay: ELISA, protein coated at 1μg/ml
T7 construct: The words 携带hFc标签的 stand before the first protein of the list

[3] = target: T1, 重组人ICOSLG蛋白; assay: ELISA, protein coated at 1μg/ml
[4] = target: T2, 重组人CD276蛋白; assay: ELISA, protein coated at 1μg/ml
[5] = target: T3, 重组人CD86蛋白; assay: ELISA, protein coated at 1μg/ml
[6] = target: T8, 重组人CD28蛋白 (human, UniProt P10747 19-152); assay: ELISA, protein coated at 1μg/ml
T8 construct: The words 携带hFc标签的 stand before the first protein of the list; also called Acrobiosystem Cat.CD8-H525a

[7] = target: T4, 重组人PD-L2蛋白; assay: ELISA, protein coated at 1μg/ml
[8] = target: T5, 重组人ICOS蛋白; assay: ELISA, protein coated at 1μg/ml
[9] = target: T9, 人PD-L1 (on cells) (human, UniProt Q9NZQ7 19-290); assay: flow cytometry on IFNγ-stimulated A375 cells
T9 construct: whole, on cells; One molecule for human PD-L1 on CHO-hPD-L1, on IFNγ-stimulated A375 and on CHO-hPD-L1-OKT3 cells; the cell is named under assay; also called CHO-hPD-L1稳定细胞株; 稳定表达人PD-L1的CHO

[10] = target: T10, 小鼠PD-L1 (on CHO cells) (mouse, UniProt Q9EP73 19-290); assay: flow cytometry on CHO-mPD-L1 cells
T10 construct: whole, on cells; also called CHO-mPD-L1稳定细胞株; 稳定表达全长小鼠PD-L1的CHO
T10 sequence (Q9EP73 19-290): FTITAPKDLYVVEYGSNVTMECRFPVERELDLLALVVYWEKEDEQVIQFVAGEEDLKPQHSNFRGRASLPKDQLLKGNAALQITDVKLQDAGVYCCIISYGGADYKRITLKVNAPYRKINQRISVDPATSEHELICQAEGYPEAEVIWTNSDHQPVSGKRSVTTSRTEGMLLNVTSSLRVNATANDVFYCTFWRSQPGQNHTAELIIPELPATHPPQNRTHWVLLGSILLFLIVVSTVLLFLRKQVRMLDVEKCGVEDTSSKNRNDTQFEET

T9 sequence (Q9NZQ7 19-290): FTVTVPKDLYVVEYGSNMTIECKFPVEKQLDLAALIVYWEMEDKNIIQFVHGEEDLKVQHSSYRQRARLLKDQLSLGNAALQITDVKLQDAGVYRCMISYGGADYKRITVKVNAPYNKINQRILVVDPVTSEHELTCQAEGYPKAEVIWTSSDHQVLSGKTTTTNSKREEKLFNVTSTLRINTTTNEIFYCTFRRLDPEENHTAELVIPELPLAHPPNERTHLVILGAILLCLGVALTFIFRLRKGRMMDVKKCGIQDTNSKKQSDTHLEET
T6 sequence (P16410 37-162): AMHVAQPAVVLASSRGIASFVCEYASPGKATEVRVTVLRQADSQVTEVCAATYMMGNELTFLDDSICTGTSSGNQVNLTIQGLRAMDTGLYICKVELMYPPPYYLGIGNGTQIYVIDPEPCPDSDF
T7 sequence (Q15116 25-167): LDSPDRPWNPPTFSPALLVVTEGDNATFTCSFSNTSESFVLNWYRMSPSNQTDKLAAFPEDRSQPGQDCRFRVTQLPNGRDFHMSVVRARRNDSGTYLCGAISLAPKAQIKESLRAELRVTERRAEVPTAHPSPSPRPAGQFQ

| binding result [1] | binding result [2] | binding result [3] | binding result [4] | binding result [5] | binding result [6] | binding result [7] | binding result [8] | EC50 [9] [nM] | binding result [10] | Binder |
| --- | --- | --- | --- | --- | --- | --- | --- | --- | --- | --- |
| no binding (tested: 10μg/ml) | no binding (tested: 10μg/ml) | no binding (tested: 10μg/ml) | no binding (tested: 10μg/ml) | no binding (tested: 10μg/ml) | no binding (tested: 10μg/ml) | no binding (tested: 10μg/ml) | no binding (tested: 10μg/ml) | ~0.2 | no binding (tested: 20μg/ml) | 176L1H2 (antibody, V domains shown, Whole humanized mAb expressed in 293 cells; detected with anti-human IgG; also called 抗人PD-L1人源化抗体176L1H2) VH: QVQLQESGPGLVKPSETLSLTCAVYGDSITSGYWNWIRKPPGKKLEYIGYISYTGSTYQNPSLKSRITMSRDTSKNQYYLKLSSVTAADTAVYYCARSRAWIRTYFDYWGQGTLVTVSS VL: EIVLTQSPDFQSVTPKEKVTITCSVSSSISSSNLHWYQQKPDQSPKLWIYGTSNLASGVPSRFSGSGSGTDYTLTINSLEAEDAATYYCQQWSSYPLTFGQGTKLEIKR |
| no binding (tested: 10μg/ml) | no binding (tested: 10μg/ml) | no binding (tested: 10μg/ml) | no binding (tested: 10μg/ml) | no binding (tested: 10μg/ml) | no binding (tested: 10μg/ml) | no binding (tested: 10μg/ml) | no binding (tested: 10μg/ml) | ~0.2 | no binding (tested: 20μg/ml) | 176L2H2 (antibody, V domains shown, Whole humanized mAb expressed in 293 cells; detected with anti-human IgG; also called 抗人PD-L1人源化抗体176L2H2) VH: QVQLQESGPGLVKPSETLSLTCAVYGDSITSGYWNWIRKPPGKKLEYIGYISYTGSTYQNPSLKSRITMSRDTSKNQYYLKLSSVTAADTAVYYCARSRAWIRTYFDYWGQGTLVTVSS VL: EIVLTQSPDFQSVTPKEKVTITCSVSSSISSSNLHWYQQKPDQSPKPWIYGTSNLASGVPSRFSGSGSGTDYTLTINSLEAEDAATYYCQQWSSYPLTFGQGTKLEIKR |
| no binding (tested: 10μg/ml) | no binding (tested: 10μg/ml) | no binding (tested: 10μg/ml) | no binding (tested: 10μg/ml) | no binding (tested: 10μg/ml) | no binding (tested: 10μg/ml) | no binding (tested: 10μg/ml) | no binding (tested: 10μg/ml) | ~0.2 | no binding (tested: 20μg/ml) | 176L2H3 (antibody, V domains shown, Whole humanized mAb expressed in 293 cells; detected with anti-human IgG; also called 抗人PD-L1人源化抗体176L2H3) VH: QVQLQESGPGLVKPSETLSLTCAVYGDSITSGYWNWIRKPPGKKLEYIGYISYTGSTYQNPSLKSRITFSRDTSKNQYYLKLSSVTAADTAVYYCARSRAWIRTYFDYWGQGTLVTVSS VL: EIVLTQSPDFQSVTPKEKVTITCSVSSSISSSNLHWYQQKPDQSPKPWIYGTSNLASGVPSRFSGSGSGTDYTLTINSLEAEDAATYYCQQWSSYPLTFGQGTKLEIKR |
| no binding (tested: 10μg/ml) | no binding (tested: 10μg/ml) | no binding (tested: 10μg/ml) | no binding (tested: 10μg/ml) | no binding (tested: 10μg/ml) | no binding (tested: 10μg/ml) | no binding (tested: 10μg/ml) | no binding (tested: 10μg/ml) | ~0.2 | no binding (tested: 20μg/ml) | 176L3H2 (antibody, V domains shown, Whole humanized mAb expressed in 293 cells; detected with anti-human IgG; also called 抗人PD-L1人源化抗体176L3H2) VH: QVQLQESGPGLVKPSETLSLTCAVYGDSITSGYWNWIRKPPGKKLEYIGYISYTGSTYQNPSLKSRITMSRDTSKNQYYLKLSSVTAADTAVYYCARSRAWIRTYFDYWGQGTLVTVSS VL: EIVLTQSPDFQSVTPKEKVTITCSVSSSISSSNLHWYQQKPDQSPKPWIYGTSNLASGVPSRFSGSGSGTDYSLTINSLEAEDAATYYCQQWSSYPLTFGQGTKLEIKR |
| no binding (tested: 10μg/ml) | no binding (tested: 10μg/ml) | no binding (tested: 10μg/ml) | no binding (tested: 10μg/ml) | no binding (tested: 10μg/ml) | no binding (tested: 10μg/ml) | no binding (tested: 10μg/ml) | no binding (tested: 10μg/ml) | ~0.2 | no binding (tested: 20μg/ml) | 176L2H1 (antibody, V domains shown, Whole humanized mAb expressed in 293 cells; detected with anti-human IgG; also called 抗人PD-L1人源化抗体176L2H1) VH: QVQLQESGPGLVKPSETLSLTCAVYGDSITSGYWNWIRKPPGKGLEYIGYISYTGSTYQNPSLKSRITMSRDTSKNQYYLKLSSVTAADTAVYYCARSRAWIRTYFDYWGQGTLVTVSS VL: EIVLTQSPDFQSVTPKEKVTITCSVSSSISSSNLHWYQQKPDQSPKPWIYGTSNLASGVPSRFSGSGSGTDYTLTINSLEAEDAATYYCQQWSSYPLTFGQGTKLEIKR |
| no binding (tested: 10μg/ml) | no binding (tested: 10μg/ml) | no binding (tested: 10μg/ml) | no binding (tested: 10μg/ml) | no binding (tested: 10μg/ml) | no binding (tested: 10μg/ml) | no binding (tested: 10μg/ml) | no binding (tested: 10μg/ml) | ~0.2 | no binding (tested: 20μg/ml) | 176L1H1 (antibody, V domains shown, Whole humanized mAb expressed in 293 cells, protein A purified; hIgG1 isotype control; detected with anti-human IgG; also called 抗人PD-L1人源化抗体176L1H1) VH: QVQLQESGPGLVKPSETLSLTCAVYGDSITSGYWNWIRKPPGKGLEYIGYISYTGSTYQNPSLKSRITMSRDTSKNQYYLKLSSVTAADTAVYYCARSRAWIRTYFDYWGQGTLVTVSS VL: EIVLTQSPDFQSVTPKEKVTITCSVSSSISSSNLHWYQQKPDQSPKLWIYGTSNLASGVPSRFSGSGSGTDYTLTINSLEAEDAATYYCQQWSSYPLTFGQGTKLEIKR |
| no binding (tested: 10μg/ml) | no binding (tested: 10μg/ml) | no binding (tested: 10μg/ml) | no binding (tested: 10μg/ml) | no binding (tested: 10μg/ml) | no binding (tested: 10μg/ml) | no binding (tested: 10μg/ml) | no binding (tested: 10μg/ml) | ~0.2 | no binding (tested: 20μg/ml) | 176L1H3 (antibody, V domains shown, Whole humanized mAb expressed in 293 cells; detected with anti-human IgG; also called 抗人PD-L1人源化抗体176L1H3) VH: QVQLQESGPGLVKPSETLSLTCAVYGDSITSGYWNWIRKPPGKKLEYIGYISYTGSTYQNPSLKSRITFSRDTSKNQYYLKLSSVTAADTAVYYCARSRAWIRTYFDYWGQGTLVTVSS VL: EIVLTQSPDFQSVTPKEKVTITCSVSSSISSSNLHWYQQKPDQSPKLWIYGTSNLASGVPSRFSGSGSGTDYTLTINSLEAEDAATYYCQQWSSYPLTFGQGTKLEIKR |
